This experiment has as its target Recombinant Art v 3.0201, non-specific lipid transfer protein of Artemisia vulgaris (mugwort) pollen (Artemisia vulgaris (mugwort)) (UniProt C4MGG9). The experiment can be described thus: crystal structure + other: NMR spectroscopy; recombinant non-tagged Art v 3.0201; X-ray crystallography of the non-labelled protein, NMR of the 13C/15N-labelled protein.

As for “Recombinant Art v 3.0201, non-specific lipid transfer protein of Artemisia vulgaris (mugwort) pollen (from UniProt C4MGG9 1-114) (non-labelled protein)”, the stoichiometry N (usually a count of units in the complex or per binding partner) turned out to be 2.

Values taken from PMC5998909.
